This sample holds only a part of the variants without activity.
Tests used:
biotinyl-Val-oxazolone = experiment: self-aminoacylation, catalytic enhancement (BVO) (fold over background); higher = more active; k-Seq, kA / k0A0; sequences stand for … in GGGAAUGGAUCCACAUCUACGAAUUC…UUCACUGCAGACUUGACGAAGCUG
Summary of the method: (§1)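 The uncatalyzed rate is the low-activity peak of a bimodal Gaussian fit, and catalytic enhancement is median kA divided by it. The kA values came from pseudo-first-order fits, with 1000 bootstraps, of per-sequence fraction reacted measured by streptavidin capture, triplicate qPCR and Illumina sequencing. Mutagenized RNA pools with a 21-nt variable region (0.43 μM) were reacted with each biotinyl-aminoacyl-oxazolone at 2–1250 μM in 50 μL HEPES/NaCl/KCl/MgCl2/CaCl2 buffer with 5% acetonitrile, pH 6.9–7.0, for 90 minutes at room temperature.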

biotinyl-Leu-oxazolone = experiment: self-aminoacylation, catalytic enhancement (BLO) (fold over background); higher = more active; k-Seq, kA / k0A0; sequences stand for … in GGGAAUGGAUCCACAUCUACGAAUUC…UUCACUGCAGACUUGACGAAGCUG
Summary of the method: as §1

biotinyl-Ile-oxazolone = experiment: self-aminoacylation, catalytic enhancement (BIO) (fold over background); higher = more active; k-Seq, kA / k0A0; sequences stand for … in GGGAAUGGAUCCACAUCUACGAAUUC…UUCACUGCAGACUUGACGAAGCUG
Summary of the method: as §1

biotinyl-Phe-oxazolone = experiment: self-aminoacylation, catalytic enhancement (BFO) (fold over background); higher = more active; k-Seq, kA / k0A0; sequences stand for … in GGGAAUGGAUCCACAUCUACGAAUUC…UUCACUGCAGACUUGACGAAGCUG
Summary of the method: as §1

biotinyl-Met-oxazolone = experiment: self-aminoacylation, catalytic enhancement (BMO) (fold over background); higher = more active; k-Seq, kA / k0A0; sequences stand for … in GGGAAUGGAUCCACAUCUACGAAUUC…UUCACUGCAGACUUGACGAAGCUG
Summary of the method: as §1

biotinyl-Trp-oxazolone = experiment: self-aminoacylation, catalytic enhancement (BWO) (fold over background); higher = more active; k-Seq, kA / k0A0; sequences stand for … in GGGAAUGGAUCCACAUCUACGAAUUC…UUCACUGCAGACUUGACGAAGCUG
Summary of the method: as §1

| Sequence | self-aminoacylation (biotinyl-Val-oxazolone) | self-aminoacylation (biotinyl-Leu-oxazolone) | self-aminoacylation (biotinyl-Ile-oxazolone) | self-aminoacylation (biotinyl-Phe-oxazolone) | self-aminoacylation (biotinyl-Met-oxazolone) | self-aminoacylation (biotinyl-Trp-oxazolone) |
| --- | --- | --- | --- | --- | --- | --- |
| AUUACCCUCGUAAUCGAGUGA [Fam2.1 aminoacylation ribozyme variant] | 7.73 | 17.2 | 6.62 | 120 | 16 | 21.7 |
| AUGCACCUAGGUCAUCGUGUG [Fam2.2 aminoacylation ribozyme variant] | 1.04 | 0.934 | 1.04 | 4.56 | 1.18 | 0.926 |
| AUCCACCUAGGUCAUCGGGCG [Fam2.2 aminoacylation ribozyme variant] | 3.87 | 5.85 | 4.91 | 20.9 | 5.3 | 3.38 |
| GUCACCCUGGUCAUCGAGUGA [Fam2.1 aminoacylation ribozyme variant] | 5.25 | 7.9 | 5.2 | 45.7 | 7.39 | 10.6 |
| AAGUUGGAUAAUAGUCGCAAG [Fam3.1 aminoacylation ribozyme variant] | 1.01 | 0.984 | 1.17 | 1.31 | 1.11 | 1.12 |
| AAGUUUACUAAUAGUCGCAAA [Fam3.1 aminoacylation ribozyme variant] | 1.61 | 1.35 | 1.95 | 2.01 | 1.44 | 2.06 |
| AUGCUUCAAACAAUCGGUCUG [Fam1A.1 aminoacylation ribozyme variant] | 1.99 | 3.36 | 2.25 | 129 | 2.1 | 50.6 |
| CGACACUUCAACCAAUCGGUC [Fam1B.1 aminoacylation ribozyme variant] | 1.6 | 1.65 | 1.38 | 18.2 | 1.61 | 13.4 |
| CCGGACUUCAAGCAAUCGGUC [Fam1B.1 aminoacylation ribozyme variant] | 1.71 | 2.03 | 1.5 | 39.3 | 1.31 | 26.3 |
| CUUACCCUGGUCAUCGAGUGA [Fam2.1 aminoacylation ribozyme variant] | 11 | 23.1 | 9.83 | 85.8 | 25.3 | 26.1 |
| AUUACCGUGGUCAACGAGUGA [Fam2.1 aminoacylation ribozyme variant] | 4.21 | 7.25 | 3.61 | 36.7 | 6.41 | 9.2 |
| AUUCAUCUAGGACAUCGGGUG [Fam2.2 aminoacylation ribozyme variant] | 2.74 | 3.59 | 2.75 | 17.3 | 3.39 | 3.07 |
| AAGUUUGCUAAUAGUUGCAAC [Fam3.1 aminoacylation ribozyme variant] | 0.83 | 0.853 | 1.06 | 0.862 | 0.933 | 0.841 |
| AUACUUCAAACAAUCCGUCUG [Fam1A.1 aminoacylation ribozyme variant] | 0.918 | 1.09 | 1.04 | 1.42 | 1.05 | 1.17 |
| AUUACCCUGGUCAUGAAGUGA [Fam2.1 aminoacylation ribozyme variant] | 4.08 | 7.74 | 4.14 | 44.8 | 8.83 | 10.1 |
| AAGUUAGCUAAUAGUCUCAAG [Fam3.1 aminoacylation ribozyme variant] | 1.27 | 0.902 | 1.26 | 2.11 | 1.22 | 1.69 |
| CAGUUUGCUAAUAGUCGCACG [Fam3.1 aminoacylation ribozyme variant] | 1.05 | 1.35 | 1.3 | 1.25 | 1.1 | 1.46 |
| UUACAUCAAACAAUCGGUCUG [Fam1A.1 aminoacylation ribozyme variant] | 1.17 | 1.17 | 1.12 | 3.42 | 1.19 | 2.51 |
| ACUCACCAAGGUCAUCGGGUG [Fam2.2 aminoacylation ribozyme variant] | 4.52 | 7.13 | 4.43 | 46.4 | 5.24 | 6.28 |
| AUUCACCUAGGUCAUACGGUG [Fam2.2 aminoacylation ribozyme variant] | 4.41 | 10.3 | 4.38 | 55.7 | 7.59 | 6.75 |
| AAGUUUGCUAAUAGUACCAAG [Fam3.1 aminoacylation ribozyme variant] | 1.15 | 0.791 | 1.14 | 1.41 | 1.22 | 0.838 |
| CCACACUUAAAUCAAUCGGUC [Fam1B.1 aminoacylation ribozyme variant] | 0.914 | 0.787 | 0.829 | 0.699 | 0.589 | 0.868 |
| CUACUUCAAACAAUGGGCCUG [Fam1A.1 aminoacylation ribozyme variant] | 1.16 | 1.19 | 1.4 | 1.67 | 1.25 | 0.896 |
| AUUACCCUGGUCAUCGGGUGC [Fam2.1 aminoacylation ribozyme variant] | 18.9 | 52.5 | 13.4 | 211 | 39.2 | 48.7 |
| AUUCACGUAGGUAAUCGGGUG [Fam2.2 aminoacylation ribozyme variant] | 3.22 | 5.06 | 2.91 | 23.1 | 3.84 | 4.53 |
| CCUCACUUCGAGCAAUCGGUC [Fam1B.1 aminoacylation ribozyme variant] | 1.04 | 1.04 | 1.08 | 2.23 | 0.881 | 1.16 |

| Sequence | self-aminoacylation (biotinyl-Val-oxazolone) | self-aminoacylation (biotinyl-Leu-oxazolone) | self-aminoacylation (biotinyl-Ile-oxazolone) | self-aminoacylation (biotinyl-Phe-oxazolone) | self-aminoacylation (biotinyl-Met-oxazolone) | self-aminoacylation (biotinyl-Trp-oxazolone) |
| --- | --- | --- | --- | --- | --- | --- |
| AUUACGCUGGUCAUCGAGUGA [Fam2.1 aminoacylation ribozyme variant] | 3.23 | 4.69 | 3.16 | 16.1 | 4.57 | 5.76 |
| AUUAGCAUGGUCAUCGAGUGA [Fam2.1 aminoacylation ribozyme variant] | 2.64 | 3.39 | 2.87 | 3.31 | 3.11 | 3.81 |
| CUAGUUAAAACAAUCGGUCUG [Fam1A.1 aminoacylation ribozyme variant] | 0.679 | 0.801 | 0.795 | 0.675 | 0.958 | 0.622 |
| CAACUUAAAACAAUCGGUCUG [Fam1A.1 aminoacylation ribozyme variant] | 1.14 | 1.11 | 0.984 | 1.71 | 1.09 | 0.948 |
| CUCCUUCAAACAAUCGGCCUG [Fam1A.1 aminoacylation ribozyme variant] | 2.15 | 3.39 | 2.04 | 131 | 2.63 | 61.7 |
| AUUACCCUGGUCUUCGCGUGA [Fam2.1 aminoacylation ribozyme variant] | 6.16 | 9.77 | 5.89 | 55.2 | 9.58 | 11.5 |
| ACUACCCUGGUCACCGAGUGA [Fam2.1 aminoacylation ribozyme variant] | 4.77 | 11.2 | 4.67 | 46.5 | 9.06 | 9.34 |
| AUACACCUAGCUCAUCGGGUG [Fam2.2 aminoacylation ribozyme variant] | 2.21 | 1.91 | 1.9 | 4.61 | 2.23 | 1.24 |
| AAGUUUGCUAAUAGUAGCCAG [Fam3.1 aminoacylation ribozyme variant] | 0.769 | 0.78 | 0.868 | 1.04 | 0.77 | 2.24 |
| CCAGACUUCAAGCAAUCGAUC [Fam1B.1 aminoacylation ribozyme variant] | 0.778 | 0.614 | 0.714 | 1.51 | 0.559 | 0.639 |
| AUCCACCUAGGUCAUUGGGUG [Fam2.2 aminoacylation ribozyme variant] | 3.24 | 3.86 | 3.51 | 24.6 | 3.76 | 3.8 |
| AGGUUUGCUAAGAGUCGCAAG [Fam3.1 aminoacylation ribozyme variant] | 1.02 | 1.02 | 1.12 | 3.17 | 1.15 | 1.54 |
| CAACUUCAUACAAUCGGUCUG [Fam1A.1 aminoacylation ribozyme variant] | 0.962 | 1.04 | 1.06 | 1.65 | 0.861 | 0.771 |
| AAGUUUGCUAAUAAUCGCGAG [Fam3.1 aminoacylation ribozyme variant] | 0.808 | 0.744 | 0.983 | 1.24 | 0.863 | 1.47 |
| AUUCUACUAGGUCAUCGGGUG [Fam2.2 aminoacylation ribozyme variant] | 3.87 | 7.31 | 3.7 | 41.7 | 5.82 | 5.93 |
| AAUCACCUAGAUCAUCGGGUG [Fam2.2 aminoacylation ribozyme variant] | 2.68 | 2.55 | 2.75 | 9.55 | 2.41 | 3.99 |
| AUUAACCUGGUCAUCGGGUGA [Fam2.1 aminoacylation ribozyme variant] | 4.72 | 9.83 | 4.26 | 53.1 | 8.87 | 11 |
| CUGCUUCAAGCAAUCGGUCUG [Fam1A.1 aminoacylation ribozyme variant] | 1.49 | 2.96 | 1.29 | 132 | 2.13 | 42.8 |
| AUUACCCUGGUCAUCGAGAUA [Fam2.1 aminoacylation ribozyme variant] | 2.2 | 3.19 | 1.78 | 7.71 | 3.42 | 3.19 |
| AUUCACCUAAGUCUUCGGGUG [Fam2.2 aminoacylation ribozyme variant] | 3.85 | 6.66 | 3.49 | 33.4 | 4.98 | 5.42 |
| AAGUGUGCUAAUAGUCGUAAG [Fam3.1 aminoacylation ribozyme variant] | 1.12 | 0.899 | 1.54 | 28 | 1.69 | 7.72 |
| ACUCACAUAGGUCAUCGGGUG [Fam2.2 aminoacylation ribozyme variant] | 6.65 | 10.6 | 6.79 | 69.5 | 9.37 | 10.2 |
| AAUACCCUGGUGAUCGAGUGA [Fam2.1 aminoacylation ribozyme variant] | 3.02 | 6.6 | 3.23 | 13.1 | 5.35 | 6.66 |
| CUCCGUCAAACAAUCGGUCUG [Fam1A.1 aminoacylation ribozyme variant] | 0.973 | 0.889 | 1.07 | 1.97 | 1.02 | 1.29 |
| AUUUCCCUGGUCAUCGAGUGC [Fam2.1 aminoacylation ribozyme variant] | 1.08 | 1.59 | 1.1 | 2.11 | 1.86 | 1.21 |

Source: the supplement of paper PMC9233669
